Target: human PD-L1 on antigen-presenting cells of the Promega J1250 assay (human) (UniProt Q9NZQ7)
Experiment: cell-based or functional assay

Luminescence (RLU) at 0.1 µg/mL: 241000 RLU | Luminescence (RLU) at 20 µg/mL: 1.47e+06 RLU
Substance: atezolizumab (antibody)

— US20230390369A1
